From article doi:10.1101/2023.02.24.529973 (bioRxiv, 2023)

Molecular target: the molecule itself
Experiment: SEC

B1: Rv2067c, recombinant tagless protein (enzyme)
chain: TDDHPRADIVSRQYHRWLYPHPIADLEAWTTANWEWFDPVHSHRILWPDREYRPDLDILIAGCGTNQAAIFAFTNRAAKVVAIDISRPALDHQQYLKDKHGLANLELHLLPIEELATLGRDFDLVVSTGVLHHLADPRAGMKELAHCLRRDGVVAAMLYGKYGRIGVELLGSVFRDLGLGQDDASIKLAKEAISLLPTYHPLRNYLTKARDLLSDSALVDTFLHGRQRSYTVEECVDLVTSAGLVFQGWFHKAPYYPHDFFVPNSEFYAAVNTLPEVKAWSVMERLETLNATHLFMACRRDRPKEQYTIDFSTVAALDYVPLMRTRCGVSGTDMFWPGWRMAPSPAQLAFLQQVDGRRTIREIAGCVARTGEPSGGSLADLEEFGRKLFQSLWRLDFVAVALPASG
With B1 the “stoichiometry N” value was 2.
